We go through 1 substance from paper PMC10912509.

The target in the experiment is ITPKB (UniProt P27987). In words: co-immunoprecipitation, immunoblot. The conditions noted are these: reference: wild-type Trim25; sites S100. For orientation: A western blot detects proteins with antibodies after separation by electrophoresis.

Regarding “Trim25 (from UniProt Q14258) Trim25 S100A”, the “binding against the reference” value is on record as “weaker”.
